# Laboratory results reported in the DeepSol protein solubility set.
# Experiment: soluble on expression in E. coli; label from the status in PepcDB or PDB records
row,Sequence,soluble on expression in E. coli
1,MGSDKIHHHHHHMHIVDVTMFYAPASGGVRTYLQAKREILSQVPGLRTSLLVPGAERDSLGNHHTLPALRLPLGQGYRFPLRARLWRDALGALAPDIIEAGDPYVTAWAALDASQRLGVPVVGFYHSDLPRLMGDRFGRQVGRRLERYVVNLYRRFDSVLAPCQAMADRLRDWGIDQVRVQPLGVDLQRFHPSCKDPALREELGLAPETRLLVFIGRNSREKNIDILLATMKRLGNGYHLLLIGPGMPRQVPANVTSFDRCCGIYEVARVLASSDAMLHAGTRETFGLIAQEAMASGIPVVGAKAGALKENVPLGAGILCRPLDPEAMADACQSLFRNDVVASGRYARRYVELHFSWESAMKNLLEHYRQLCASSELHVIPQKA,not soluble
2,MGSDKIHHHHHHMNFILELLRREQGRQQKELEFSQLPYQQRVAQLKEQKLPLFFYKYHSLHSHNPNKPQEKWEHASDYLINSRFYLSRPANFNDPFDMRAYFTDSVPKEKKRYFLDQLLKIRTPQLTEKDRVLEVKKLLDNPEKLRTIHKLTLDEAVDSFGVSCLSTAPCNILMWSHYANHHRGIAFQFNFAIDIFSFKWLQPVSYSNDFPGIEYFERRDNKYSIALLTKHHGWEYEKEWRIVKPNGAGTYQDFNSKILTGVILGCRIDRKDEDKIRTMIEQRKEQGLSSVKLYKLRQHESRYKLVIKHVE,not soluble
3,GMSNEHQLLVGLLKKLKDDALILPTLPEVAMRVQEVVGRPDSSLKQVAEIIGQDAAISARIIKVANSALYSRGVPAENINSAVTRIGLTQIKSIATSVAMEQLFISTNEMVWEVMDEVWRTSIDVTAAACSLLQIYNKKHPGSGLNYDTLTLAGLVHNIGALPVLTEAEAHPEMFTTIEHLRSLVRKMQGPIGRAVLKSWDFAPEVMEVVERWADLPYLGDHVSYLDFIRAAAFYTGELRAGNELEQRLDVFVKRGLPVSPEDLGSDAFLDSYHSIKASYE,soluble
4,MPSNPQQSSRATPDRPSGSDESVIVERIYKAVMEQRLAPKTKLSEARLCETFGVGRMRVRRALLLLSSQGIIELQSNRGAYVACPDTAEANEVFAARMLIEPPLVRQLAQSSGNIDLTILTEHIALEDAARERKERTEIIRLSGEFHTKLAQATGNKFIFRMMRELVTRTSLIVGLFGSSENASCPDDEHNNILKAIQSQDPEMAETLLISHLNHIQNGLDMDMRQVPQDDLAAILGSD,not soluble
5,MASTSKPAASTTAIKKYYFYVLLCADQTLYGGFTDNLQRRLATHNAGKGAKYTRVRSRRPLQLIYHETFTDKSSALKAEYAFKHQSRAAKLKYLSAHDVKILEHHHHHH,not soluble
6,AHHHHHHGSSAKLERIVEEISVAFVGHEDVVRKVLSAALANGNVLFEDNPGLGKTLLAKAFAKVLGLEYRRVQFTPDLLPSDILGTKVWRPEKGTFEIVKGPIFTNVLLADEINRAPPKTQSALLEAMEERQVTIEGETFVLERPFFVIATQNPLEFEGTYPLPEAQLDRFLVRMSIGYPKNESEEVEILKARLRWGKDDPTTDLKPAITKSEFLKMQEDVERNVKIHEDILKYIVRIVRTIREDERVEAGPSPRGGLALMKLAKANAYVEGRDYVIPDDVKEFAIEALAHRIFLKPEYSLEKGIEIEIVREALESVPVPKDLKY,not soluble
7,MSLAPSTYYDAKTRPPSARAQRDAVLGPALRQLWKDNYCVYGAHKLWKTARRAGYDVGRDQVARLMRAAGIQGVRRGKRVRTTKPDPVAARHPDLVKRKFTATAPNQLWVTDLTFVPTWAGVAYVCFIVDAHSRMIVGWRVASHMRTSMVLDALEMARWSRGTTLQNLICHSDAGSQFTSIRYGERLAEIGGVPSIGTVGDSFDNALAETVNGYYKAELIYGPARSGPWKTVEDVELATLSWVYWHNTSRLHSYLGDLPPAEFEAAFYDASRSGQPLVEIQEGHHHHHH,soluble
8,GSHMAAELDSLLGQEKERFQVLPGRDKMLYVAAQNERDTLWARQVLARGDYDKNARVINENEENKRISIWLDTYYPQLAYYRIHFDEPRKPVFWLSRQRNTMSKKELEVLSQKLRALMPYADSVNITLMDDVTAAGQAEAGLKQQALPYSRRNHKGGVTFVIQGALDDVEILRARQFVDSYYRTWGGRYVQFAIELKDDWLKGRSFQYGAEGYIKMSPGHWYFPSPL,soluble
9,STQEQTPQICVVGSGPAGFYTAQHLLKHHSRAHVDIYEKQLVPFGLVRFGVAPDHPEVKNVINTFTQTARSDRCAFYGNVEVGRDVTVQELQDAYHAVVLSYGAEDHQALDIPGEELPGVFSARAFVGWYNGLPENRELAPDLSCDTAVILGQGNVALDVARILLTPPDHLEKTDITEAALGALRQSRVKTVWIVGRRGPLQVAFTIKELREMIQLPGTRPMLDPADFLGLQDRIKEAARPRKRLMELLLRTATEKPGVEEAARRASASRAWGLRFFRSPQQVLPSPDGRRAAGIRLAVTRLEGIGEATRAVPTGDVEDLPCGLVLSSIGYKSRPIDPSVPFDPKLGVVPNMEGRVVDVPGLYCSGWVKRGPTGVITTTMTDSFLTGQILLQDLKAGHLPSGPRPGSAFIKALLDSRGVWPVSFSDWEKLDAEEVSRGQASGKPREKLLDPQEMLRLLGH,soluble
10,MRIEQELKLGFKDVLFRPKRSTLKSRSQVNLTREFTFKHSGRQWSGVPVIAANMDSVGSFAMAKALAEHGVMTAVHKHYTVADWAEFVKSADKATLNNVMVSTGTSEADFQKTKDVMALSDELIFICIDIANGYSEHLVEYVQRVRAAFPDKVISAGNVVTGDMVEELILAGADIVKVGIGPGSVCTTRVKTGVGYPQLSAIIECADAAHGLGGRIIGDGGCTCPGDVAKAFGGGADFVMLGGMLAGHEEAGGELIVKDGETFMKFYGMSSKSAMDKHSGGVAGYRAAEGKTVLLPYRGSVHGTIQDILGGVRSTCTYVGAAELRELTKRTTFIRVQEQENNVYGRE,soluble
11,MASAIWYYTVLVAESVLGIVGLRLYEEPAYTVLDRPSDTIEIRRYAPRVAAEVDLERRGNADGQAFTLLFNYIAGANRGGSGTSERVAMTVPVDVARPAKIAMTAPVETATQDRMTRMRFFLPATFTADTAPKPSDERVQIVTVPEQTIATLRFSGTGRDLREREQQLIAALANTPWQPVGAPYGLFYDAPFTLPFVRRNEAAVEVAKRLEHHHHHH,not soluble
12,DRKAVLNAAEQHFSGWKELYLCLVDRDTQGGLVVETGGPLTFSEAERAAADWAWQHDQPAGSGTGTLPSGRWWWWPITAEEGPLALLGVCAREGQSFTDQHRRLLAALTQPLAQALARAQLAQELEAARLHGETEQLRSALLASVSHDLRTP,not soluble
13,MGRKSQRKNATMFDSDDDTSSVSSSSTMPSERLLNPGMDEVTVLKDALLDQSLDALYEKREQALATIVDAFNSDLQYEFVEKKFATLLHQCLHCTKKGSTKETSLATHVIGLLALTVGLGDHAQEVLEESVTPLSQALKSGREILKITSILECLAVITFVGGNDPEQTEKSMQIIWQMIHPKLGSNVVATKPSPAVISAVVSSWAFLLTTVDRWTLGPKIFQETVTYLSTLLEKDDRSVRIAAGEALAVIYELGTLEKFAAEVKGSANGSVKEGGVSQEALMHMHGLKAKVTKQVRELSVEAGGKGSAKKDLNTQRNLFKDLVEFLEDGYAPETSTKVGGDYLQTSTWYQMIQLNYLKHFLGGGFIKHMQENEFLHDVFSFTPKKIGGGKLSNDEKRLFKSPNSALNKARTQFLAKQRMLAKNMNVGHYAATAMEEE,soluble
14,MSDAPTVVAYLGPAGTFTEEALYKFADAGVFGDGEIEQLPAKSPQEAVDAVRHGTAQFAVVAIENFVDGPVTPTFDALDQGSNVQIIAEEELDIAFSIMVRPGTSLADVKTLATHPVGYQQVKNWMATTIPDAMYLSASSNGAGAQMVAEGTADAAAAPSRAAELFGLERLVDDVADVRGARTRFVAVQAQAAVSEPTGHDRTSVIFSLPNVPGSLVRALNEFAIRGVDLTRIESRPTRKVFGTYRFHLDISGHIRDIPVAEALRALHLQAEELVFVGSWPSNRAEDSTPQTDQLAKLHKADEWVRAASEGRKLN,soluble
15,DYNASDMKVVSLRTKDNLHLKSWYKPASKHRPTILYLHGNAGHIGYRMPLVREFIDAGLGVFLLEYRGYGGNPGKPGEKGLYEDGETAIEFLIQHGVPSKRVILYGESIGTGVATHLATKYPVCAVILQSPFTSLTRLAQYHYPLNFLKPWDQYNSLARMKKINAPILVLHGKLDQIVPYQEGLNVFNEANEPKKMVSFDDKEHNDLWSADNFSREIIQFALNQCS,not soluble
16,MGSDKIHHHHHHVTHKDMEYALDRVLAGSEKRSRSLVEEEREVVAYHEAGHALVGWMLEHTDALLKYEISIFRQKFRFPLKPLKSRRKVHFLREFLCNFPQRILENFKKIQKSYSKIQIFHQKFTQNIKKLKFPVLGEFLKFPANNSSEFLKNLKNFIKKIFFFEIFGPKLPQKVTIIPRTSAALGFAQYSPRDKHLFSKDELFDRMCMMLGGRCAENLKFGRATSGAQDDLQKVTKSAYAQVKLYGMSSIVGPLSFPNTEGFQIKPYSKKFASTFDQEATLIVAKANEATTDLIKNNMDKLETIAQALLKREVLNYEDVKKL,not soluble
17,KANELKPIPFSQRTTPSILDLRKQQATVTQNKIRTDITRFCYGQEAHLDRALAYLGLSPSDEKRPIVTGLRETELNGAYSLILEFDSPLIPIDIWQQKHAKMTKYFAPNVEVKITQPAENRIELELIKTQ,not soluble
18,MSLAKEPLIRVLLIEDDPMVQEVNRMFVEKLSGFTIVGTTATGEEGMVKTRELQPDLILLDIFMPKQDGLSFIKQIREQYIDVDIIAVTAANDTKTIKTLLRYGVMDYLVKPFTFERLKAALTQYEEMFRKMQKEAELSQDSLDEMIKQKQAQANMDDLPKGLHAHTLQQVIERLEELDEPKSAEEIGRDVGLARVTVRRYLNYLESVGQVEMDLTYGSIGRPIQTYKLKEGHHHHHH,soluble
19,MMTQQELEKYLWGAATTLRGTIDAGDYKQYIFPLMFFKRICDVYDEEFENALAESDGDLEYAAFAENHHFQVPKGAHWNDVRETTTNIGLALQNAMRAIEKANPDTLEGIFGDASWTNKERLSDAMLTNLIEHYSEQTLNLKNVPDDKLGNAYEYLIKEFADDSGHTAAEFYTNRTVVKLMTMIMAPQPGESVYDPTCGSGGLLLNCALHLKDEGKEYRTLKLYGQEINLLTSAIARMNMFMHGIEEFDIVRGNTLSNPGLLENDELKKFNVILANPPYSIKSWDRKAFESDPYGRNVWGTPPQGCADYAFQQHIQKSLDLGNGRSISLWPHGILFRDAETAMRRKMIEQDQVECVIGLGPNLFYNSPMEACLLITKTNKIESKKDKILFINAVKEVRQDKNIGYLDQVHIDKIFNAYNKFENEDSFAVLVDKQEVLDKKANMAINLYIRPDSLVSSEEACFATAYQEWQQSSGDLKQSMEKLFKELV,not soluble
20,GSHMFKCMEALGMESGEIHSDQITASSQYSTNWSAERSRLNYPENGWTPGEDSYREWIQVDLGLLRFVTAVGTQGAISKETKKKYYVKTYKIDVSSNGEDWITIKEGNKPVLFQGNTNPTDVVVAVFPKPLITRFVRIKPATWETGISMRFEVYGCKITDYPCSGMLGMVSGLISDSQITSSNQGDRNWMPENIRLVTSRSGWALPPAPHSYINEWLQIDLGEEKIVRGIIIQGGKHRENKVFMRKFKIGYSNNGSDWKMIMDDSKRKAKSFEGNNNYDTPELRTFPALSTRFIRIYPERATHGGLGLRMELLGCEVE,soluble
